From patent publication US20260183437A1, “VHH ANTIBODY CONJUGATES WITH HETEROARYL CHELATORS” (ABDERA THERAPEUTICS INC., priority 2022, published 2026) come the findings set out here.

What is called Cmax is the peak of the concentration-time curve. For orientation: Kd means a measure of binding affinity in units of concentration.

For one data set, the system named is BT-474 tumor. The experiment in a line: Biodistribution of ^111In radiolabeled VHH-Fcs, SPECT/CT imaging. The data set is classed as in vivo, mice. To be noted: labeled with ^111In, compared with H101. How it is done: The objective of this study was to observe the biodistribution of ^111In radiolabeled SPECT/CT imaging across select test articles in BT-474 tumor (breast cancer cells) bearing nude mice. The following articles were tested at a CAR of about 4: ^111In-H101-4-1, ^111In-H1014-2, ^111In-H105-4-2, ^111In-H107-4-2, and ^111In-H108-4-2. FIGS. 9A, 9B, and 9C show tissue accumulation over time for ^111In-H101-SL, ^111In-H101-4-2, and ^111In-H108-4-2. […] FIGS. 10A, 10B, and 10C show tumor:tissue ratios. In each case, the tumor:tissue ratios were greater than 5, indicating increased tumor accumulation and better profiles used for determining safety (e.g., as compared lower tumor:tissue ratios). […] In each case, the VHH-Fc variants show advantageous targeting of tumor tissue.

The nature of data set [1]: Pharmacokinetics of VHH-Fc variants in Tg32 (humanized FcRn) mice. Format: in vivo. As to conditions: IV 3 mg/kg, HER2 VHH-Fc study (Table 6). The protocol: Twenty eight (28) 8 week old male B6. Cg-Fcgrt^tm1Der Tg(FCGRT)32Dcr/DcrJ (Tg32 hom, JAX stock #014565) mice were distributed into 7 groups with 4 mice per group as outlined in the table. […] (See, e.g., Avery L B et al. “Utility of a human FcRn transgenic mouse model in drug discovery for early assessment and prediction of human pharmacokinetics of monoclonal antibodies.” MAbs. 2016 August-September; 8(6):1064-78). On Day 0, body weights were measured and test articles were IV administered to all mice at 3 mg/kg and 5 mL/kg. 25 μL blood samples were collected from each mouse at time intervals. The blood samples were collected into 1 μL K3EDTA, processed to plasma, diluted 1/10 in 50% glycerol in PBS, transferred into specialized 96 well storage plates, and stored at −20° C. All plasma samples were assessed via a hIgG ELISA chosen for its high sensitivity for all seven test articles.

A further data set has as its target T1, human insulin (Homo sapiens, UniProt P01308).
T1 construct: 5 μg/mL of human insulin (SigmaAlrich, Cat #: I9278); purchased SigmaAlrich I9278
The experiment in a line: Polyreactivity ELISA. Format: binding. To be noted: 10 μg/mL VHH-Fc; signal normalized to non-coated well. The protocol: Polyreactivity of VHH-Fcs against negatively charged biomolecules was determined by ELISA (As in Avery et al., “Establishing in vitro in vivo correlations to screen monoclonal antibodies for physicochemical properties related to favorable human pharmacokinetics.” MAbs. 2018 February/March; 10(2):244-255). Briefly, ELISA plate was coated with 5 μg/mL of human insulin (SigmaAlrich, Cat #: I9278) and 10 μg/mL of double stranded DNA (SigmaAlrich, Cat #: D1626-250MG) overnight. The plate was blocked with ELISA buffer (PBS, 1 mM EDTA, 0.05% Tween-20, pH 7.4). 10 μg/mL of test VHH-Fcs was loaded onto the plates in quadruplicates and incubated for 2 hours. Goat anti-human Fc(0.01 ug/ml) conjugated with HRP was then added and the plate incubated for 1 hour. The signal was developed with TMB and A450 absorbance was measured with Synergy Neo2 plate reader. The signal was normalized with the signal of non-coated well for each antibody tested.
Background: ELISA stands for enzyme-linked immunosorbent assay.

The target in the next data set is T2, hFcRn (Homo sapiens, UniProt P55899).
T2 construct: purchased Sino Biological CT071-H27H-B
The experiment in a line: FcRn affinity by biolayer interferometry (Octet RED96e), pH 6.0. As to conditions: pH 6.0, 2:1 binding model. How it is done:
FcRn affinity of VHH-Fc can generally be used to predict the half-life of antibody serum clearance. (See, e.g., Datta-Mannan A et al. “FcRn affinity-pharmacokinetic relationship of five human IgG4 antibodies engineered for improved in vitro FcRn binding properties in cynomolgus monkeys.” Drug Metab Dispos. 2012 August; 40(8):1545-55). Briefly, 10 nM of biotinylated hFcRn (Sino Biological, Cat #: CT071-H27H-B) was captured with the SA biosensor using Octet RED96e (Fortebio). The hFcRN coated biosensor was dipped into the sample solutions in sodium phosphate buffer (100 mM Na2HPO4, 150 mM NaCl w/ 0.05% Tween-20, pH 6.0) with serial concentrations of tested antibodies and the association measured. The dissociation was measured by dipping the biosensors into sodium phosphate buffer without antibody. The KD values were determined using Octet Data Analysis HT 11.0 software. 2:1 (Heterogeneous Ligand) binding model was used in analysis. […] Changes in FcRn affinity were consistent across targets. Constructs with Fc Effector mutation only have no impact on FcRn affinity.
Background: BLI is a label-free optical method that tracks binding on a fibre tip over time.

Another data set addresses T3, FcγRI (Homo sapiens, UniProt P12314).
T3 construct: purchased Acro Biosystems
The experiment in a line: FcγR affinity by biolayer interferometry (Octet Red96e). Format: binding. How it is done: (§1) VHH-Fcs were also tested for affinity to FcγRs by biolayer interferometry using the Octet Red96e platform. Each cycle is performed with orbital shake speed of 1,000 rpm. Streptavidin (SA) biosensors (Sartorius 18-5019) were rehydrated for 10 mins using kinetics buffer (PBS+0.1% BSA+0.02% Tween-20). Biotinylated-FcγRs (Acro Biosystems) were then loaded for 40-100 s onto SA biosensors at concentrations ranging between 1-5 μg/mL diluted in PBS. VHH-Fcs were serially diluted 1:2 in sample buffer (PBS+0.02% Tween-20) with starting concentrations ranging between 5000 nM to 37.5 nM. Loaded biosensors were then associated with VHH-Fcs for 60-120 s. VHH-Fc dissociation was measured for 30-900 s in sample buffer. Bound VHH-Fcs were then removed using 3 cycles of 5 s regeneration buffer (150 mM NaCl, 300 mM Sodium Citrate) and 5 s sample buffer. The data was analyzed either using a globally-fitted 1:1 Langmuir binding model (FcγRI) or steady state analysis (Octet software version HT v11.1).

In the next data set the target is T4, FcγRIIb/c (Homo sapiens, UniProt P31994).
T4 construct: purchased Acro Biosystems
T4 sequence (P31994 43-310): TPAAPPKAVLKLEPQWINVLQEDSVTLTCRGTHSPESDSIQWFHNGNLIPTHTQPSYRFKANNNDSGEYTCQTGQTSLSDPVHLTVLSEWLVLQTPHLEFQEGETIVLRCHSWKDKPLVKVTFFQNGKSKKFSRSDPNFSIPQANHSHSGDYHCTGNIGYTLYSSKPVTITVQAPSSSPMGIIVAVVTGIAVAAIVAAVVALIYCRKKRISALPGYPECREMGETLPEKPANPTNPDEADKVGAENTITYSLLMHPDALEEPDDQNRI
Described as above. The data set is classed as binding. The protocol:
as §1

In another data set the target is T5, FcγRIIa (R167) (Homo sapiens, UniProt P12318, H167R).
T5 construct: purchased Acro Biosystems
T5 sequence (P12318 36-218 H167R limits assumed): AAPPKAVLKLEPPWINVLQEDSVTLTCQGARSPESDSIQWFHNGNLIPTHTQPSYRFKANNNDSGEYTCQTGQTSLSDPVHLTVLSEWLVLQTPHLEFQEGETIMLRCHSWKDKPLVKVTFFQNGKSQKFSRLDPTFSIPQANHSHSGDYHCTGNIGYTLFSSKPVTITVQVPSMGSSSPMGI
The data set is described as above. The data set is classed as binding. The protocol:
as §1

T2 sequence (P55899 24-297 limits assumed): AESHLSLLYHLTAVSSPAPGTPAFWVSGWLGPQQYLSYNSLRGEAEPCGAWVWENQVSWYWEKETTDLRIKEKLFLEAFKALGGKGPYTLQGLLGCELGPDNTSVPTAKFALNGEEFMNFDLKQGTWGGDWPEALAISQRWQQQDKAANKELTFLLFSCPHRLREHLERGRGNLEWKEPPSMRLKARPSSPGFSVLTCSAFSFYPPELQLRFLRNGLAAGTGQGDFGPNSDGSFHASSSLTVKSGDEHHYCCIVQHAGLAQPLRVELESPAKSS
T2 sequence (P61769 21-119 partner): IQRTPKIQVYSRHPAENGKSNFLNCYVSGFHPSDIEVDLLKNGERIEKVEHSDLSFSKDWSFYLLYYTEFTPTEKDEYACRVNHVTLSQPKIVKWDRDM
T1 sequence (P01308 25-54 limits assumed): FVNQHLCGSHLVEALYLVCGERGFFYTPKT
T1 sequence (P01308 90-110 limits assumed): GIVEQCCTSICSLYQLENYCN
T3 sequence (P12314 16-374): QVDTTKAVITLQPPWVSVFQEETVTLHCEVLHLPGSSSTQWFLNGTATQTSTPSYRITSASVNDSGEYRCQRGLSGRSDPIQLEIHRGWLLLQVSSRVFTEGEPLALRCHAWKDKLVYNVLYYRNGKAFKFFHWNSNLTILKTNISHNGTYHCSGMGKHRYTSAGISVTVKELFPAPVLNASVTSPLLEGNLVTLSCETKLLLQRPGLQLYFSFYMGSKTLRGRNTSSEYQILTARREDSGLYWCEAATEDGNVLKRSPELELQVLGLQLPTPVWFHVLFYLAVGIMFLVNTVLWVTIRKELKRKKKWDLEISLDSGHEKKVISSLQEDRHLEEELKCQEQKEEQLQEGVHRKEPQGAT

“H107: anti-HER2 VHH-Fc, FcRn mutant H310A [Compound H107]”: in the data set on BT-474 tumor, the Whole body clearance entry is listed as “increased clearance”. Besides, in data set [1], the Clearance amounted to 304.4 mL/day, the Cmax turned out to be 62.4 µg/mL and the “Terminal Half-Life” value was 9.84 h. The “Polyreactivity Assay Score, Insulin” value in the data set with human insulin turned out to be 1.306. For the same substance, the “KD (nM) to FcRn” value with hFcRn is “No binding”.

On to “H105: anti-HER2 VHH-Fc, FcRn mutant I253A [Compound H105]”, for which the Whole body clearance entry in the data set on BT-474 tumor is “increased clearance”. Moreover, in data set [1], the Clearance is 152.1 mL/day, the Cmax was 63.9 µg/mL and the “Terminal Half-Life” value is 26.9 h. Further, the “Polyreactivity Assay Score, Insulin” value with human insulin is 1.207. The “KD (nM) to FcRn” value with hFcRn is on record as “Weak”.

“H133: anti-HER2 VHH-Fc, FcRn wt, Fc effector mutant AEASS [Compound H133]”: the Kd with FcγRI amounted to 1 nM; in the data set with FcγRIIa (R167) it was 2300 nM; with hFcRn, 2.1 nM. Further, the “FcγRIIb/c nM KD” value with FcγRIIb/c was “weak”.

“H109: anti-HER2 VHH-Fc, FcRn mutant Y463A (as printed) [Compound H109]”: in data set [1], the Clearance was 18.2 mL/day, the Cmax came to 52.2 µg/mL and the “Terminal Half-Life” value was 166 h. Besides, in the data set with human insulin, the “Polyreactivity Assay Score, Insulin” value is 1.244. Further, the Kd in the data set with hFcRn came out at 13 nM.

On to “H106: anti-HER2 VHH-Fc, FcRn mutant S254A [Compound H106]”, for which, in data set [1], the Clearance stood at 19.8 mL/day, the Cmax worked out at 53.5 µg/mL and the “Terminal Half-Life” value came to 170 h. Besides, the “Polyreactivity Assay Score, Insulin” value in the data set with human insulin was 1.321. Binding with hFcRn was characterised by a dissociation constant (Kd) of 13 nM.

With “H137: anti-HER2 VHH-Fc, H435Q, Fc effector mutant AEASS [Compound H137]”, the “FcγRIIb/c nM KD” value with FcγRIIb/c is given as “weak”. The same substance gave a Kd with FcγRIIa (R167) of 1200 nM. In addition, the “KD (nM) to FcRn” value with hFcRn is reported as “Weak”.

As to “H135: anti-HER2 VHH-Fc, H310A, Fc effector mutant AEASS [Compound H135]”, the “FcγRIIb/c nM KD” value in the data set with FcγRIIb/c is reported as “weak”. The affinity with FcγRIIa (R167), expressed as Kd, was 1200 nM. The “KD (nM) to FcRn” value with hFcRn is on record as “No binding”.

“H108: anti-HER2 VHH-Fc, FcRn mutant H435Q [Compound H108]”: the Whole body clearance result in the data set on BT-474 tumor was “increased clearance”. In data set [1], the Clearance worked out at 117.5 mL/day, the Cmax came to 46.6 µg/mL and the “Terminal Half-Life” value turned out to be 37.7 h. Besides, the “Polyreactivity Assay Score, Insulin” value in the data set with human insulin came to 1.420. Also, the “KD (nM) to FcRn” value in the data set with hFcRn is “Weak”.
